# Reference: US20120329716A1 (UNIVERSITY OF MANITOBA, published 2012)
# T1: Renin substrate 1 (Arg-Glu(EDANS)-Ile-His-Pro-Phe-His-Leu-Val-Ile-His-Thr-Lys(dabcyl)-Arg)
# T1 chain: REIHPFHLVIHTKR
# T2: Purified human recombinant renin (human, UniProt P00797 67-406)
# T2 sequence (looked up): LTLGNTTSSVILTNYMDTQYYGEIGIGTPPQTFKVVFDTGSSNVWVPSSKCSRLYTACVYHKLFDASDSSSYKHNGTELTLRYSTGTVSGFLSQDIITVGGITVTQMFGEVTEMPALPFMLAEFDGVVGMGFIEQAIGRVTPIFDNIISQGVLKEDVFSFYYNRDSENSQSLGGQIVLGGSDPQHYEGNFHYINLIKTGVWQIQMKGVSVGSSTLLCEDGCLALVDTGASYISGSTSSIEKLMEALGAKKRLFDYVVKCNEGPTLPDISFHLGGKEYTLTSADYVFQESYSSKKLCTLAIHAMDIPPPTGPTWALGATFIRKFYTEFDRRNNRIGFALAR
# B1: Purified human recombinant renin (protein)
# chain: T2 sequence (looked up)
# B2: SEQ ID NO. 13 (peptide)
# peptide: WLP
# B3: SEQ ID NO. 24 (peptide)
# peptide: TNPFPF
# B4: SEQ ID NO. 15 (peptide)
# peptide: WMP
# B5: SEQ ID NO. 18 (peptide)
# peptide: WPHT
# B6: SEQ ID NO. 16 (peptide)
# peptide: HPGAG
# B7: SEQ ID NO. 23 (peptide)
# peptide: ADMFPF
# B8: SEQ ID NO. 26 (peptide)
# peptide: YKKSVSSESDPF
# B9: SEQ ID NO. 25 (peptide)
# peptide: NFLAGPSD
# B10: SEQ ID NO. 22 (peptide)
# peptide: AHPVAIN
# B11: SEQ ID NO. 17 (peptide)
# peptide: RSPD
# B12: SEQ ID NO. 19 (peptide)
# peptide: YPRE
# B13: SEQ ID NO. 20 (peptide)
# peptide: SNILEAA
# B14: SEQ ID NO. 14 (peptide)
# peptide: RAAP
# B15: SEQ ID NO. 21 (peptide)
# peptide: YAGVSLI
# Molecular target: T1, Renin substrate 1 …
# Experiment: not given
Binder,Michaelis-Menten constant (Km) in the absence of peptide fractions,Michaelis-Menten constant (Km) in the presence of peptide fraction T4,Michaelis-Menten constant (Km) in the presence of peptide fraction T5
B1,3.8 µM,"increased to 6.3 and 6.1 µM, respectively","increased to 6.3 and 6.1 µM, respectively"

# Molecular target: T2, Purified human recombinant renin
# Experiment: cell-based or functional assay
row,RENIN INHIBITION %,Binder
1,4.85%,B2
2,28%,B3
3,43.4%,B4
4,9.3%,B5
5,21.2%,B6
6,76.2%,B7
7,32.4%,B8
8,6.73%,B9
9,43.5%,B10
10,57.5%,B11
11,22.2%,B12
12,24%,B13
13,15.4%,B14
14,36%,B15
